Patent US20210107989A1, “METHODS FOR TREATING CD73HI TUMORS” (CORVUS PHARMACEUTICALS, INC., priority 2017, published 2021)

Biological target: T1, CD73 on cells (MDA-MB-231 cells; human PBMC) (human, UniProt P21589 27-549)
T1 sequence (looked up): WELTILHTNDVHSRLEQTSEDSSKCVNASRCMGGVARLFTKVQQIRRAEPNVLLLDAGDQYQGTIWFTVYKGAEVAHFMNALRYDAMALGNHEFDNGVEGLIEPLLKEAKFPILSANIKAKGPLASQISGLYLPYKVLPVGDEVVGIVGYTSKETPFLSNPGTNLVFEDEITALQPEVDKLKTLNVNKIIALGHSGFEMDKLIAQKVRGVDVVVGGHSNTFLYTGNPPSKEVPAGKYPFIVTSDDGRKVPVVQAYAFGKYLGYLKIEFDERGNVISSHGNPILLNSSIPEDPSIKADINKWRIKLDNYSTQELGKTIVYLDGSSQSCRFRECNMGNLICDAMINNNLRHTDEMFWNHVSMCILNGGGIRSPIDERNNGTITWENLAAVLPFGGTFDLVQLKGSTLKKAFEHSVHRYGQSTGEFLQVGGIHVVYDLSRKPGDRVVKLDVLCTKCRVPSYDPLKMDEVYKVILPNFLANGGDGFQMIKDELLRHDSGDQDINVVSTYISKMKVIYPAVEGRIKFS
Experiment: cell-based or functional assay

B1: CPX-006 (antibody, human IgG1, kappa, N297Q, V domains shown)
VH: QVQLVQSGAEVEKPGASVKVSCKASGYTFTSYWITWVRQAPGQGLEWMGDIYPGSGNTNYNEKFKTRVTITADKSTSTAYMELSSLRSEDTAVYYCAKEGGLTTEDYALDYWGQGTLVTVSS
VL: EIVLTQSPATLSLSPGERATLSCRASKNVSTSGYSYMHWYQQKPGQAPRLLIYLASNLESGIPPRFSGSGYGTDFTLTINNIESEDAAYYFCQHSRELPFTFGQGTKVEIKR
EC50, T cell proliferation (human PBMC with AMP): 189 nM
EC50, interferon gamma production (human PBMC with AMP): 137 nM
